Test results taken from PMC7738868.

Target: fibronectin with extra-domain B (EDB-FN) (human (endogenous in U87MG and U251MG)) (UniProt P02751)
Assay: cellular uptake of rhodamine B-labelled micelles, confocal microscopy; U87MG and U251MG cells incubated 1 h at 37 °C with 100 µg/mL micelles holding 1.0, 2.5 or 5.0 wt% APTEDB-DSPE, washed with PBS, fixed; fluorescence normalised to DAPI (ImageJ); nontargeting PEG2000-DSPE micelles as …; also after EDB-FN siRNA in U87MG (uptake decreased) and over 5 min to 4 h

Sequence of UniProt P02751 (P02751 32-2477): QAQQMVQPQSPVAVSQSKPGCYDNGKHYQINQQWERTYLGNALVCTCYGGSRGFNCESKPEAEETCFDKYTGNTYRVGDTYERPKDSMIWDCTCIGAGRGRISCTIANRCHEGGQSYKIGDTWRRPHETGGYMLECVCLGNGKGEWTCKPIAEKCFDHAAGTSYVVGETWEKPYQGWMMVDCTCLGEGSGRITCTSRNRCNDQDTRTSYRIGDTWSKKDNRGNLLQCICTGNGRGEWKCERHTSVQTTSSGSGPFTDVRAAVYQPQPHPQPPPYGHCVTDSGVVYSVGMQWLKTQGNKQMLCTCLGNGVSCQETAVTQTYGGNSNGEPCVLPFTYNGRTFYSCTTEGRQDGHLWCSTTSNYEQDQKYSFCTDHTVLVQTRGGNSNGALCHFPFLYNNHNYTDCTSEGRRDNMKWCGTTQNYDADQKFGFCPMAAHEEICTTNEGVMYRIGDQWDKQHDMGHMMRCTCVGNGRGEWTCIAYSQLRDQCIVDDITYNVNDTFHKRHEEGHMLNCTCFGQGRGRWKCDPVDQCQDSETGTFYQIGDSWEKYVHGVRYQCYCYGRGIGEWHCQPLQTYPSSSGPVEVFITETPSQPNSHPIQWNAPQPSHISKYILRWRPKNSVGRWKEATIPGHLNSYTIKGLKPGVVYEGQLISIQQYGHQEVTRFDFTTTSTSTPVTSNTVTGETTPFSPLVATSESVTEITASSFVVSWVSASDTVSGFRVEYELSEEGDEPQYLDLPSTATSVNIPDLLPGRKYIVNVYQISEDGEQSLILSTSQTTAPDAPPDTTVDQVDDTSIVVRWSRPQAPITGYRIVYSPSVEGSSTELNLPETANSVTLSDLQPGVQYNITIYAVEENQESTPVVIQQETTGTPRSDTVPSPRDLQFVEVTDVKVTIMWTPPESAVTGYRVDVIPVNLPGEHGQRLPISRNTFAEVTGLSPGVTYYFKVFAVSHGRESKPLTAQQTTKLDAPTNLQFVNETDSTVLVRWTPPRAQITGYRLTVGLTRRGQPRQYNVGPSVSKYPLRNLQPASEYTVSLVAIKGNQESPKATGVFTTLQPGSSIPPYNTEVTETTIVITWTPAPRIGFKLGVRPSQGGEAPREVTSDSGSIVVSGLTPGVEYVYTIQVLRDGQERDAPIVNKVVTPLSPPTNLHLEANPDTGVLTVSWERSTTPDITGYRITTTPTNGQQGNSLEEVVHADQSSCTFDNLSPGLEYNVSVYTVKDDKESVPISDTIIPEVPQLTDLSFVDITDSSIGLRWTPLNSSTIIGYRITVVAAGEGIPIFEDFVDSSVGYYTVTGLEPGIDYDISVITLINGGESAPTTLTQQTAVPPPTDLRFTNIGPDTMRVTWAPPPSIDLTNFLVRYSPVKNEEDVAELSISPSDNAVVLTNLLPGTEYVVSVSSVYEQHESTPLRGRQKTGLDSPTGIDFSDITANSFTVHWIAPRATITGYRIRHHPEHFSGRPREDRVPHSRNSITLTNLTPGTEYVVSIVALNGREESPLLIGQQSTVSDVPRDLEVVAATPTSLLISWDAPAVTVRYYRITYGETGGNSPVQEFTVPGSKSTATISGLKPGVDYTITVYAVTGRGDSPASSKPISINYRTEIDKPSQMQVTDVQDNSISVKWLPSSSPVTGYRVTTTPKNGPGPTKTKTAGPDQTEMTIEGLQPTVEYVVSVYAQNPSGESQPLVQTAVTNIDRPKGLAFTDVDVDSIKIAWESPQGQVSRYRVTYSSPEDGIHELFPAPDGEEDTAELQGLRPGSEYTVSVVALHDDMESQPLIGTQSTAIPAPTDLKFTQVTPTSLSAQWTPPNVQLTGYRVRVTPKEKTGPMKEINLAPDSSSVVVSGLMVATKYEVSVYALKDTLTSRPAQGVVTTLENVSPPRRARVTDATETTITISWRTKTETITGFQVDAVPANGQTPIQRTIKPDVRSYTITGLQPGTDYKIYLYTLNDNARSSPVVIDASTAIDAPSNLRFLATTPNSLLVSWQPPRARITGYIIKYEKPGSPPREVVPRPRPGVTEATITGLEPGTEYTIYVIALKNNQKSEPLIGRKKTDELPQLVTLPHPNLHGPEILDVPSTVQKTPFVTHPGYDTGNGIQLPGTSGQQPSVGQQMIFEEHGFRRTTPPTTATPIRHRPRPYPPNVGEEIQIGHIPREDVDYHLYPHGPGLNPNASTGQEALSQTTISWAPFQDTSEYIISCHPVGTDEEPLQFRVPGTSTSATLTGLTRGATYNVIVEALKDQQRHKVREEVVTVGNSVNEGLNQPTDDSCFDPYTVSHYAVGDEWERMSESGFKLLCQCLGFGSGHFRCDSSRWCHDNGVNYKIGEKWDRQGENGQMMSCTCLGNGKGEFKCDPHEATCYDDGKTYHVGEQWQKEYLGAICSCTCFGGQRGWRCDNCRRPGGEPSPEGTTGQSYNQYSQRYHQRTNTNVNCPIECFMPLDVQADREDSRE

cellular uptake, fluorescence intensity normalised to DAPI (U87MG cells, 1.0 wt% APTEDB-DSPE): 166 A.U.
cellular uptake, fluorescence intensity normalised to DAPI (U87MG cells, 2.5 wt% APTEDB-DSPE): 93.2 A.U.
cellular uptake, fluorescence intensity normalised to DAPI (U87MG cells, 5.0 wt% APTEDB-DSPE): 56.7 A.U.
cellular uptake, fluorescence intensity normalised to DAPI (U251MG cells, 1.0 wt% APTEDB-DSPE): 76.4 A.U.
cellular uptake, fluorescence intensity normalised to DAPI (U251MG cells, 2.5 wt% APTEDB-DSPE): 129 A.U.
cellular uptake, fluorescence intensity normalised to DAPI (U251MG cells, 5.0 wt% APTEDB-DSPE): 53.4 A.U.
Substance: APTEDB-conjugated PEG2000-DSPE (EDB-FN-specific aptamer-like peptide on the surface of a micellar nano-DDS) (designed binder)
